Data published in paper PMC12474171.

Experiments:
[1] = molecular target: AAVpo.1 capsid (porcine adeno-associated virus po.1; VP1, VP2 and VP3) (adeno-associated virus AAVpo.1 (isolated from porcine tissues)); experiment: cryo-EM structure
[2] = molecular target: AAVpo.6 capsid (porcine adeno-associated virus po.6; VP1, VP2 and VP3) (adeno-associated virus AAVpo.6 (isolated from porcine tissues)); experiment: cryo-EM structure

| Substance | stoichiometry N [1] | stoichiometry N [2] |
| --- | --- | --- |
| AAVpo.1 capsid (porcine adeno-associated virus po.1; VP1, VP2 and VP3) (complex) | 60 |  |
| AAVpo.6 capsid (porcine adeno-associated virus po.6; VP1, VP2 and VP3) (complex) |  | 60 |
